Data from patent publication CN111423515A (BETA PHARMA INC, dated 2020).

Legend:
[1] = biological target: T1, human CD20 on cells (CHO-K1/CD20) (human, UniProt P11836 1-297); test: flow cytometry on CHO-K1/CD20 cells
T1 construct: whole, on cells; also called CHO-K1/hCD20; CHO-K1/human CD20
T1 sequence (looked up): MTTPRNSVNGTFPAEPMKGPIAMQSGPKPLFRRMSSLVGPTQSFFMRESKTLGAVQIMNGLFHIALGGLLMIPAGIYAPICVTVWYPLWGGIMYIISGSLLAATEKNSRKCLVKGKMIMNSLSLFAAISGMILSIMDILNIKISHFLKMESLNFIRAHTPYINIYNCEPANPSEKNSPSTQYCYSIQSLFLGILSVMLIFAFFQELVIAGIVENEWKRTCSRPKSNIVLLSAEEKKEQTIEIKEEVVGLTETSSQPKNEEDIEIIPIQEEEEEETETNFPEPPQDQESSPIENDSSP

[2] = biological target: T2, human CD47 on cells (CHO-K1/hCD47; human red blood cells RBC) (human, UniProt Q08722 19-323); test: flow cytometry, RBC mixed 20:1 with Raji, 10 μg/mL
T2 construct: whole, on cells; also called CHO-K1/human CD47; 红细胞
T2 sequence (Q08722 19-323): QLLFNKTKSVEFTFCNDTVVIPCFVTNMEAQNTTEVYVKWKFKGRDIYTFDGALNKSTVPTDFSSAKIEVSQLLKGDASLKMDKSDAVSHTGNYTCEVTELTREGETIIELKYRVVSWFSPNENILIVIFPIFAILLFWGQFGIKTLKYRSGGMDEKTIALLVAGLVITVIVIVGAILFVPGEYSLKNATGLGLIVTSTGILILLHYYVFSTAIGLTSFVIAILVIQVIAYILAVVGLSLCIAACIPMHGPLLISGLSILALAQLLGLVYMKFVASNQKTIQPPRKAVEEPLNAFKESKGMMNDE

hCD47-his = biological target: T3, hCD47-his (human, UniProt Q08722 19-139); test: ELISA, hCD47-his coated
T3 construct: Bought protein coated on the ELISA plate; also called Cat#CD7-H5227; not shown: his tag
T3 sequence (Q08722 19-139 limits assumed): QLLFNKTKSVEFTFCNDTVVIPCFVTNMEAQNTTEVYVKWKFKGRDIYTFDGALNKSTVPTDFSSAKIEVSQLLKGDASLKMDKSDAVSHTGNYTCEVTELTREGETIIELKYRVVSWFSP

B1: 9020-1RP-1C1 (bispecific antibody)
heavy: not shown
light: QIVLSQSPAILSASPGEKVTMTCRASSSVSYIHWFQQKPGSSPKPWIYATSNLASGVPVRFSGSGSGTSYSLTISRVEAEDAATYYCQQWTSNPPTFGGGTKLEIK
notes: not shown: light chain constant region of the CD20 antibody
Does B1 bind [1]?
Result: binds

Does B1 bind [2]?
Result: binds

B2: 9020-1RP-1C2 (bispecific antibody)
heavy: not shown
light: QIVLSQSPAILSASPGEKVTMTCRASSSVSYIHWFQQKPGSSPKPWIYATSNLASGVPVRFSGSGSGTSYSLTISRVEAEDAATYYCQQWTSNPPTFGGGTKLEIK
notes: linker changed; not shown: light chain constant region of the CD20 antibody
Does B2 bind [1]?
Result: binds

Does B2 bind [2]?
Result: binds

B3: 重组蛋白CD002 (Fc fusion)
chain: EEELQVIQPDKSVSVAAGESAILHCTVTSLFPVGPIQWFRGAGPARELIYNQRQGPFPRVTTVSETTKRENMDFSISISAITPADAGTYYCVKFRKGSPDTEFKSGAGTELSVRAKPS
notes: Control recombinant protein; the format is not described; not shown: not described
Does B3 bind (hCD47-his)?
Result: binds

B4: 9020-6RP (bispecific antibody)
heavy: QVQLQQPGAELVKPGASVKMSCKASGYTFTSYNMHWVKQTPGRGLEWIGAIYPGNGDTSYNQKFKGKATLTADKSSSTAYMQLSSLTSEDSAVYYCARSTYYGGDWYFNVWGAGTTVTVSA
light: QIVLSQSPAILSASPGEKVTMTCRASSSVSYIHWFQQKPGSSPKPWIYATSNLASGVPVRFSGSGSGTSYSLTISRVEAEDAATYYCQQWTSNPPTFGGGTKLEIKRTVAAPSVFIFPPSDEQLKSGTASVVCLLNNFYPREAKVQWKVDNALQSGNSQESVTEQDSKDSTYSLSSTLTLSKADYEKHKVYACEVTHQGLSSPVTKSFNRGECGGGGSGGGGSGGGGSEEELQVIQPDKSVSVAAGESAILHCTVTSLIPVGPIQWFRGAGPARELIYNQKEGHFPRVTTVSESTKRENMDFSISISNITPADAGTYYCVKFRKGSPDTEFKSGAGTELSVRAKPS
notes: Bispecific light chain co-transfected with the CD20 antibody heavy chain; not shown: IgG1 constant region
Does B4 bind [1]?
Result: binds
